Experimental data reported in the supplement of paper PMC9112550, “Optimization of the antimicrobial peptide Bac7 by deep mutational scanning” (BMC Biology, 2022).

test system: Escherichia coli TOP10; assay: shrunken log2 fold change of peptide-encoding DNA abundance (4.5 h post-induction vs induction); higher = less antimicrobial activity (less host growth inhibition); settings: time post-induction: 4.5 h; library: site-saturation at positions 5, 18, 19, 20
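Note: peptides expressed intracellularly from a pBAD plasmid library in pooled LB shake-flask culture, induced with 0.3% L-arabinose, DNA abundance read by NGS, three biological replicates, DESeq2 with apeglm shrinkage.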

Row | Sequence | shrunken log2 fold change
1 | RRIRLRPPRLPRPRPRPDLCPRP | 0.307
2 | RRIRLRPPRLPRPRPRPIGFPRP | 0.0709
3 | RRIRHRPPRLPRPRPRPPLKPRP | -0.00744
4 | RRIRVRPPRLPRPRPRPLPYPRP | -0.587
5 | RRIRDRPPRLPRPRPRPKSYPRP | 0.0134
6 | RRIRIRPPRLPRPRPRPLFPPRP | -0.42
7 | RRIRIRPPRLPRPRPRPGEGPRP | 0.38
8 | RRIRHRPPRLPRPRPRPMRAPRP | 0.686
9 | RRIRDRPPRLPRPRPRPENHPRP | -0.0926
10 | RRIRHRPPRLPRPRPRPSYFPRP | -0.628
11 | RRIRRRPPRLPRPRPRPIECPRP | -0.00663
12 | RRIRDRPPRLPRPRPRPQQVPRP | 0.0253
13 | RRIRTRPPRLPRPRPRPEKDPRP | -0.271
14 | RRIRKRPPRLPRPRPRPYTLPRP | 0.0187
15 | RRIRVRPPRLPRPRPRPRCTPRP | 0.0149
16 | RRIRRRPPRLPRPRPRPYLVPRP | -0.0711
17 | RRIRHRPPRLPRPRPRPFEHPRP | -0.0952
18 | RRIRWRPPRLPRPRPRPNIIPRP | -0.486
19 | RRIRRRPPRLPRPRPRPKPCPRP | 0.126
20 | RRIRIRPPRLPRPRPRPIIIPRP | -0.598
21 | RRIRCRPPRLPRPRPRPPANPRP | 0.521
22 | RRIRWRPPRLPRPRPRPYTPPRP | -0.72
23 | RRIRQRPPRLPRPRPRPSGEPRP | 0.0168
24 | RRIRTRPPRLPRPRPRPEVLPRP | -0.0153
25 | RRIRMRPPRLPRPRPRPISNPRP | -0.0517

Row | Sequence | shrunken log2 fold change
26 | RRIRVRPPRLPRPRPRPEKYPRP | -0.171
27 | RRIRWRPPRLPRPRPRPCRQPRP | -0.134
28 | RRIRGRPPRLPRPRPRPGSEPRP | 0.864
29 | RRIRIRPPRLPRPRPRPNGVPRP | -0.37
30 | RRIRWRPPRLPRPRPRPQDWPRP | 0.36
31 | RRIRPRPPRLPRPRPRPNEVPRP | 0.292
32 | RRIRLRPPRLPRPRPRPGTLPRP | 0.0174
33 | RRIRFRPPRLPRPRPRPGTLPRP | -0.422
34 | RRIRVRPPRLPRPRPRPNVCPRP | -0.111
35 | RRIRIRPPRLPRPRPRPSSWPRP | 0.025
36 | RRIRARPPRLPRPRPRPCYEPRP | -0.109
37 | RRIRLRPPRLPRPRPRPMGGPRP | 0.26
38 | RRIRHRPPRLPRPRPRPVGPPRP | 0.195
39 | RRIRNRPPRLPRPRPRPSLYPRP | -0.0524
40 | RRIRSRPPRLPRPRPRPAMHPRP | -0.0199
41 | RRIRERPPRLPRPRPRPTQKPRP | 0.337
42 | RRIRQRPPRLPRPRPRPKLLPRP | -0.153
43 | RRIRKRPPRLPRPRPRPDLEPRP | 0.0158
44 | RRIRPRPPRLPRPRPRPLGRPRP | 0.0841
45 | RRIRFRPPRLPRPRPRPSGFPRP | -0.207
46 | RRIRARPPRLPRPRPRPEANPRP | 1.69
47 | RRIRIRPPRLPRPRPRPYDFPRP | 0.126
48 | RRIRCRPPRLPRPRPRPALSPRP | 0.282
49 | RRIRLRPPRLPRPRPRPMFQPRP | -1.11
50 | RRIRLRPPRLPRPRPRPIQQPRP | -0.0102

Row | Sequence | shrunken log2 fold change
51 | RRIRPRPPRLPRPRPRPDKNPRP | -0.308
52 | RRIRFRPPRLPRPRPRPNFAPRP | -0.125
53 | RRIRIRPPRLPRPRPRPHLSPRP | -0.0549
54 | RRIRSRPPRLPRPRPRPPHFPRP | 0.503
55 | RRIRVRPPRLPRPRPRPGEGPRP | 0.62
56 | RRIRYRPPRLPRPRPRPSNVPRP | -1.01
57 | RRIRRRPPRLPRPRPRPCHKPRP | 0.153
58 | RRIRNRPPRLPRPRPRPAIVPRP | -0.0426
59 | RRIRARPPRLPRPRPRPMGYPRP | 0.0315
60 | RRIRFRPPRLPRPRPRPKMSPRP | -0.369
61 | RRIRTRPPRLPRPRPRPLGKPRP | 0.0663
62 | RRIRNRPPRLPRPRPRPMVCPRP | -0.018
63 | RRIRMRPPRLPRPRPRPPTCPRP | 0.183
64 | RRIRIRPPRLPRPRPRPFFYPRP | -0.416
65 | RRIRHRPPRLPRPRPRPPFNPRP | -0.256
66 | RRIRLRPPRLPRPRPRPVYCPRP | -0.303
67 | RRIRHRPPRLPRPRPRPYPWPRP | -0.113
68 | RRIRMRPPRLPRPRPRPEYMPRP | -0.00213
69 | RRIRNRPPRLPRPRPRPHHIPRP | -0.282
70 | RRIRCRPPRLPRPRPRPIKFPRP | -0.159
71 | RRIRLRPPRLPRPRPRPTMMPRP | -0.282
72 | RRIRSRPPRLPRPRPRPPPKPRP | 0.708
73 | RRIRCRPPRLPRPRPRPRSDPRP | -0.101
74 | RRIRWRPPRLPRPRPRPWSTPRP | 0.374
75 | RRIRKRPPRLPRPRPRPTCVPRP | 0.241

Row | Sequence | shrunken log2 fold change
76 | RRIRRRPPRLPRPRPRPNTDPRP | -0.106
77 | RRIRTRPPRLPRPRPRPIEEPRP | 0.0678
78 | RRIRWRPPRLPRPRPRPKCQPRP | 0.136
79 | RRIRRRPPRLPRPRPRPCHNPRP | -0.278
80 | RRIRDRPPRLPRPRPRPEMSPRP | 0.00748
81 | RRIRGRPPRLPRPRPRPSAQPRP | 1.26
82 | RRIRKRPPRLPRPRPRPRETPRP | 0.0512
83 | RRIRERPPRLPRPRPRPQKKPRP | 0.0196
84 | RRIRLRPPRLPRPRPRPLYSPRP | -1.1
85 | RRIRYRPPRLPRPRPRPSSVPRP | -0.425
86 | RRIRPRPPRLPRPRPRPYHDPRP | -0.0378
87 | RRIRNRPPRLPRPRPRPSLHPRP | -0.621
88 | RRIRYRPPRLPRPRPRPVYIPRP | -1.27
89 | RRIRRRPPRLPRPRPRPKTQPRP | 0.273
90 | RRIRPRPPRLPRPRPRPWGDPRP | -0.0121
91 | RRIRERPPRLPRPRPRPQCFPRP | -0.702
92 | RRIRSRPPRLPRPRPRPDKEPRP | 0.0247
93 | RRIRPRPPRLPRPRPRPFTFPRP | -0.189
94 | RRIRIRPPRLPRPRPRPCETPRP | 0.105
95 | RRIRGRPPRLPRPRPRPEPYPRP | 0.141
96 | RRIRVRPPRLPRPRPRPWAVPRP | 0.157
97 | RRIRGRPPRLPRPRPRPDMCPRP | 1.27
98 | RRIRTRPPRLPRPRPRPRRPPRP | 0.493
99 | RRIRFRPPRLPRPRPRPVRVPRP | 0.349
100 | RRIRQRPPRLPRPRPRPCERPRP | -0.0133

Row | Sequence | shrunken log2 fold change
101 | RRIRTRPPRLPRPRPRPHLIPRP | 2.85
102 | RRIRNRPPRLPRPRPRPLWEPRP | -0.106
103 | RRIRLRPPRLPRPRPRPSINPRP | -0.32
104 | RRIRWRPPRLPRPRPRPDTEPRP | 0.14
105 | RRIRGRPPRLPRPRPRPLYSPRP | 0.225
106 | RRIRIRPPRLPRPRPRPTHDPRP | -0.0575
107 | RRIRERPPRLPRPRPRPIWLPRP | -0.0129
108 | RRIRSRPPRLPRPRPRPKGEPRP | 0.379
109 | RRIRERPPRLPRPRPRPHAAPRP | -0.0217
110 | RRIRPRPPRLPRPRPRPNPEPRP | -0.0226
111 | RRIRMRPPRLPRPRPRPMFEPRP | 0.155
112 | RRIRNRPPRLPRPRPRPLMGPRP | -0.254
113 | RRIRPRPPRLPRPRPRPILHPRP | -0.277
114 | RRIRHRPPRLPRPRPRPDFCPRP | -0.0801
115 | RRIRIRPPRLPRPRPRPCKWPRP | -0.38
116 | RRIRARPPRLPRPRPRPYRQPRP | -0.0187
117 | RRIRPRPPRLPRPRPRPYQRPRP | 0.0369
118 | RRIRDRPPRLPRPRPRPWTEPRP | 0.0384
119 | RRIRCRPPRLPRPRPRPLGLPRP | -0.0163
120 | RRIRFRPPRLPRPRPRPGAQPRP | 0.247
121 | RRIRYRPPRLPRPRPRPADKPRP | -0.419
122 | RRIRNRPPRLPRPRPRPLCQPRP | -0.307
123 | RRIRCRPPRLPRPRPRPFCQPRP | -0.353
124 | RRIRYRPPRLPRPRPRPRCKPRP | -0.573
125 | RRIRARPPRLPRPRPRPISPPRP | -0.141

Row | Sequence | shrunken log2 fold change
126 | RRIRPRPPRLPRPRPRPQKPPRP | 0.163
127 | RRIRYRPPRLPRPRPRPRIFPRP | -0.603
128 | RRIRLRPPRLPRPRPRPKCCPRP | -0.166
129 | RRIRNRPPRLPRPRPRPGLHPRP | -0.0523
130 | RRIRFRPPRLPRPRPRPPDEPRP | 0.684
131 | RRIRSRPPRLPRPRPRPCIVPRP | -1.05
132 | RRIRDRPPRLPRPRPRPLLGPRP | 0.356
133 | RRIRSRPPRLPRPRPRPERAPRP | 0.399
134 | RRIRNRPPRLPRPRPRPVWGPRP | 0.283
135 | RRIRGRPPRLPRPRPRPPMKPRP | 0.138
136 | RRIRFRPPRLPRPRPRPHTCPRP | 0.00442
137 | RRIRWRPPRLPRPRPRPWPMPRP | -0.0421
138 | RRIRKRPPRLPRPRPRPKNKPRP | 0.287
139 | RRIRNRPPRLPRPRPRPACSPRP | 0.0895
140 | RRIRWRPPRLPRPRPRPVSAPRP | 0.316
141 | RRIRQRPPRLPRPRPRPFCLPRP | -0.336
142 | RRIRRRPPRLPRPRPRPWSIPRP | 0.0651
143 | RRIRHRPPRLPRPRPRPENWPRP | 0.147
144 | RRIRPRPPRLPRPRPRPIHWPRP | 0.225
145 | RRIRPRPPRLPRPRPRPLYWPRP | -0.0211
146 | RRIRPRPPRLPRPRPRPEFWPRP | 0.583
147 | RRIRLRPPRLPRPRPRPIKQPRP | -0.00202
148 | RRIRYRPPRLPRPRPRPTTMPRP | -0.722
149 | RRIRHRPPRLPRPRPRPVICPRP | -0.0717
150 | RRIRIRPPRLPRPRPRPPVIPRP | -0.108
